The values below come from patent US20220236279A1.

Assay [1] has as its target human atypical chemokine receptor 3 (ACKR3) (human) (UniProt P25106). In words: cell-based or functional assay.
Assay [2] has the same target. Description: binding competition with CXCL12-AF647, flow cytometry.

pIC50: −log10 of the molar value.

human atypical chemokine receptor 3 (ACKR3) (human), sequence (P25106 whole entry): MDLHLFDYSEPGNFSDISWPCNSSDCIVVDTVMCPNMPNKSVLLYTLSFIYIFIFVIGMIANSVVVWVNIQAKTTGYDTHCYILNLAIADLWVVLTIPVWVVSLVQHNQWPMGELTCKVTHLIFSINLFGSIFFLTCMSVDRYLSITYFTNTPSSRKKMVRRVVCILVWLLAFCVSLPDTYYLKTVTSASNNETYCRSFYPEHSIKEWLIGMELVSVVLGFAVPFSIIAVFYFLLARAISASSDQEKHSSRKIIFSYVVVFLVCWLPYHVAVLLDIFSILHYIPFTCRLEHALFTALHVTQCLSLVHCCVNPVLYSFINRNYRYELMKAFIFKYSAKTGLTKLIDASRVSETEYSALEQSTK

Turning to “CXCL11 (C-X-C motif chemokine 11) (from UniProt O14625 22-94) (ligand)”, the EC50, β-arrestin recruitment (NanoBiT) in assay [1] was 2.2 nM. nociceptin 1-13 amide: the pIC50 in assay [2] is < 5.00.
